Data taken from PMC5101508 (Scientific Reports, 2016).

How the values were obtained:
mAb F240 [1] = assay: Surface Plasmon Resonance (SPR) of gp41 peptide on captured F240 IgG; format: binding; conditions: reduced vs oxidized peptide
Procedure: Sensorgrams were obtained at room temperature for mAb F240 immobilized on a Protein A chip with 0–200 nM concentrations of gp41 peptide passed over the chip. […] Standard deviations of ka, kd and KD for two experiments are shown.
The binding affinity and kinetics of F240 for gp41_583–618 peptide and gp41_583–618 peptide pretreated to reduce C^598-C^604 disulfide bond was assessed by Surface Plasmon Resonance on a Biacore T-100 (GE Healthcare) at 25 °C. The reduced gp41_583–618 was generated by treating the oxidized form of the same peptide with 0.05 M of TCEP. Protein A was first immobilized onto the second of the two flow cells on a CM5 chip to ~3000 response units (RU) and the first flow cell blocked with a standard amine coupling protocol (GE Healthcare). F240 IgG to be evaluated was then captured onto the second flow cell by flowing a 5–10 nM solution of mAb at 10 μl/min flow rate for 30 seconds. […] Varying concentrations (0–200 nM) of the oxidized and reduced forms of the peptide were then passed over both flow cells at a flow rate of 30 μl/min for 200 seconds and allowed to dissociate by passing buffer over both cells at the same flow rate for 800 seconds. The cells were regenerated with a 30 second injection of 0.1 M glycine pH 3.0 with a flow rate of 100 μl/min and the antibody reloaded onto the second flow cell for each peptide concentration. […]

mAb F240 [2] = assay: Isothermal Titration Calorimetry (ITC) of F240 with gp41 peptides; format: binding; conditions: 25 °C, 1X PBS pH 7.4, F240 111 μM in syringe, peptide 11 μM in cell, single-site model
Procedure: Sensorgrams were obtained at room temperature for mAb F240 immobilized on a Protein A chip with 0–200 nM concentrations of gp41 peptide passed over the chip. […] Standard deviations of ka, kd and KD for two experiments are shown. […] The binding isotherms were fitted to a one-site binding model using Origin for ITC version 7.0383 (MicroCal). The fitting yields the stoichiometry (N), the binding constant (KD), and the enthalpy (ΔH) of the binding reaction.
The ITC experiments were performed using an ITC200 system (Micro-Cal) as previously described by Bradshaw et al.[61], at 25 °C in a 1X PBS buffer pH 7.4. F240 was dialyzed against this buffer overnight before the experiment. The peptides were dissolved in the final dialysis buffer. […] Titrations were performed at 25 °C with 17 injections of 2.42 μl aliquots, with 210–240 second intervals between injections. Heats of dilutions were measured and subtracted from each data set. Data were corrected for the heat of dilution and fitted using a nonlinear least-squares routine using a single-site binding model with Origin for ITC version 7.0383 (MicroCal).

[3] = tested on: EGFP-CEM-NKr-CCR5-SNAP cells sensitized with AT-2–inactivated HIV-1 BaL; assay: RFADCC, virion bound assay; format: cell-based; conditions: curves normalized for plateau cytotoxicity values using C11 (Fig. 5D); two independent experiments in duplicate
Excerpt: (§1) EGFP-CEM-NKr-CCR5-SNAP cells sensitized with AT-2–inactivated HIV-1 BaL were (C) stained for antibody binding and (D) ADCC using the modified rapid fluorometric antibody-mediated cytotoxicity assay (RFADCC)[35]. Cluster A CD4i antibodies A32, N5-i5, C11 and Synagis were used as controls. The plot represents a mean of two independent experiments normalized to the average A32 values with error bars showing the range between experiments.
(§2) In brief, EGFP-CEM-NKr-CCR5-SNAP target cells were first stained with the SNAP-Surface Alexa Fluor 647 dye, washed twice and spinoculated with HIV-1 BaL AT-2 inactivated virus at 2000 RPM for 2 h at 12 °C. Subsequently, AT-2 BaLsensitized double-stained targets were washed twice with cold R10 medium and then subjected to testing for antibody binding (detected with PE-labeled mouse anti-human IgG secondary antibody, BD Bioscence cat. 555787) and RFADCC assay, following the previously described protocol. Samples were collected on a BD Fortessa Special Order instrument (BD Biosciences) and analyzed using FlowJo software (Tree Star, Ashland, OR). The HIV-1BaL AT-2 inactivated virus was generously provided by Dr. Jeff Lifson, NCI, Frederick. The ADCC data represent the typical results obtained in two independent experiments done in duplicate and the bars indicate the range of the values of cytotoxicity.

[4] = target: monoclonal antibody F240 (IgG) (human (isolated from an HIV infected individual)); assay: SPR
[5] = target: HIV-1 BaL envelope glycoprotein (Env, gp120/gp41) on AT-2-inactivated virions (HIV-1 (clade B, strain BaL)); assay: fluorescence correlation spectroscopy (FCS); Alexa 647 labelled mAb (5 μg/ml) incubated with 10 μg/ml of free AT-2-inactivated HIV-1 BaL virions for 90 minutes at 37 °C; in solution
[6] = target: gp41 583-618 peptide, oxidized form (Cys598-Cys604 disulfide) (HIV-1 (clade B, strain BaL)); assay: ITC
[7] = tested on: EGFP-CEM-NKr-CCR5-SNAP cells sensitized with AT-2–inactivated HIV-1 BaL; assay: Antibody binding (staining) to virion-sensitized cells, virion bound assay; format: cell-based; conditions: Fig. 5C; PE-labeled anti-human IgG secondary antibody; mean of two independent experiments normalized to A32
Excerpt: as §1, §2

[8] = tested on: EGFP-CEM-NKr-CCR5-SNAP cells infected with BaL infectious molecular clone; assay: Cell-surface staining of IMC BaL infected EGFP-CEM-NKr-CCR5-SNAP cells; format: cell-based, HIV-1 BaL
Procedure: For BaL-infected cells two gates were delineated: p24+/CD4− and p24+low/CD4+; and one for Mock p24−/CD4+. The plot represents a mean of two independent experiments normalized to the average A32 values with error bars showing the range between experiments.
EGFP-CEM-NKr-CCR5-SNAP cells were spinoculated for 2 hr at 2000 RPM at 12 °C in 96-well U-bottom plate (5 × 10^5 cells/well) with 240 ng of IMC BaL virus (control cells were incubated without virus), as measured by HIV-1 p24 antigen capture ELISA. Afterward, the viral inoculum was diluted 1:2 in R10 medium containing G418 1.5 mg/ml, and cells and virus were placed into one well of a 12-well flat-bottom plate. The cells were then cultured adding fresh medium every 2 days. […] After a wash, cells were then fixed and permeabilized using the Cytofix/Cytoperm Kit (BD-PharMingen, San Diego, Calif.) for 20 min at 4 °C. Subsequently, permeabilized cells were washed once with the buffer provided by the manufacturer, resuspended and stained for 30 min at RT with 5 μl (PE)-conjugated mouse anti-p24 mAb (KC57-RD1; Beckman Coulter, Inc.). After two additional washes, HIV-1- or mock were fixed in PFA 2% analyzed with an LSRII Fortessa flow cytometer (BDBiosciences) and data analysis was performed with FlowJo software (Tree Star,Inc., San Carlos, Calif.). The plot represents a mean of two independent experiments normalized to the average A32 values with error bars showing the range between experiments.

[9] = target: T1, gp41 583-618 peptide, oxidized form (Cys598-Cys604 disulfide) (HIV-1 (clade B, strain BaL), disulfide bond between Cys598 and Cys604 (oxidized peptide)); assay: SPR
T1 peptide: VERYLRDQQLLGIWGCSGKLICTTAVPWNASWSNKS

[10] = target: T2, gp41 583-618 peptide, reduced form (pretreated with TCEP) (HIV-1 (clade B, strain BaL)); assay: SPR; peptide pretreated with TCEP
T2 peptide: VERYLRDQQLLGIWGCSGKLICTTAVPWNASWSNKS

[11] = target: T2, gp41 583-618 peptide, reduced form …; assay: SPR; peptide pretreated with TCEP
[12] = target: T1, gp41 583-618 peptide, oxidized form …; assay: SPR

VERYLRDQQL[10] LGIWGCSGKL[20] ICTTAVPWNA[30] SWSNKS [reduced gp41_583–618, gp41_583–618 pretreated with TCEP to reduce the C598-C604 disulfide bond]
lower affinity as compared to its oxidized form (mAb F240 [1]): approximately 14 fold

VERYLRDQQL[10] LGIWGCSGKL[20] ICTTAVPWNA[30] SWSNKS (disulfide) [gp41_583–618]
binding constant KB (mAb F240 [2]): 2.95e+07 M⁻¹
Kd (mAb F240 [2]; read-out: dissociation constant KD): 0.034 µM

Synagis: Synagis (MedImmune), control mAb [reference compound]
AUC (Area Under Curve), ADCC [3]: 18.2 cytotoxicity/μg/ml

gp41 583-618 peptide, reduced form (pretreated with TCEP)
fold lower affinity than the oxidized peptide [4]: 14 fold

monoclonal antibody F240 (IgG)
percent of binding [5]: 40%
Ka [6]: 2.95e+07 M⁻¹
Kd [6]: 0.034 µM

B1: N5-i5: Cluster A CD4i antibody used as control (antibody, V domains shown)
VH: EVQLVESGGGLVQPGGSLRLSCAASGFTFSTYAMSWVRQAPGKGLEWVSSINNSGRNTFSADSVKGRFTISRDNSKNTLFLVMNSLRAEDTAVYYCAKDLRLGGGSDYWGQGTLVTVSS
VL: QSALTQPASVSGSPGQSITISCTGTSSDVGSYNFVSWYQQHPGKAPKLMIYEVSERPSGISNRFSGSKSGNTASLTISGLQAEDEADYYCSSYAGSTTFRVFGGGTKLTVR
recognition (binding) of virion-sensitized cells, in words [7]: Lower than reported in ref. [35]
binding to mock-infected cells ([8]; mock p24−/CD4+ population): did not recognize
binding to productively infected cells ([8]; p24+/CD4− population, 5 days post-infection): did not recognize
binding to CD4-preserving cells with virus ([8]; p24+low/CD4+ population, 5 days post-infection): very effectively stained
AUC (Area Under Curve), ADCC [3]: 374.8 cytotoxicity/μg/ml

B2: monoclonal antibody F240 (IgG) (antibody, V domains shown)
VH: QVQLVQSGGGVVKPGASSRLSCAASGFTFTDYYMSWIRQAPGKGLEWVAYITKDGSEKKYADSLQHRFAVSRDNANNLVFLQLNTVEDDDTGVYYCARDDGYYDRSGYYGVFDLWGQGIRVTVSS
VL: EFLLTQSPDSLAVTLGETATITCRSSRNILHSLNNKNYLAWYQQRPGQAPKLLVIWASMRVSGVADRFSGSGSGTDFALTISSLQPEDAAVYYCQHYYTTHRTFGQGTRVEIR
modifications: Alexa Fluor 647 on primary amines (only in the FCS experiments and in the staining of IMC BaL-infected cells) | Alexa Fluor 647 on primary amines (only in the FCS experiments and in the staining of IMC BaL-infected cells)
koff [9]: 0.00083 s⁻¹
Kd [10]: 0.06 µM
koff [11]: 0.0028 s⁻¹
Kd [12]: 0.0044 µM
